In US20240124582A1 (published 2024):

B1: hLAG-3 mAb 6 (1.1) (antibody, V domains shown)
VH: QVQLVQSGAEVKKPGASVKVSCKASGYTFTDYNMDWVRQAPGQGLEWMGDINPDNGVTIYNQKFEGRVTMTTDTSTSTAYMELRSLRSDDTAVYYCAREADYFYFDYWGQGTTLTVSS
VL: DIQMTQSPSSLSASVGDRVTITCRASQDVSSVVAWYQQKPGKAPKLLIYSASYRYTGVPSRFSGSGSGTDFTLTISSLQPEDFATYYCQQHYSTPWTFGGGTKLEIK
notes: also called hLAG-3 6 (1.1); humanized LAG-3 mAb 6
B2: 25F7 (BMS-986016, Medarex/BMS), designated LAG-3 mAb A (antibody, V domains shown)
VH: QVQLQQWGAGLLKPSETLSLTCAVYGGSFSDYYWNWIRQPPGKGLEWIGEINHNGNTNSNPSLKSRVTLSLDTSKNQFSLKLRSVTAADTAVYYCAFGYSDYEYNWFDPWGQGTLVTVSS
VL: EIVLTQSPATLSLSPGERATLSCRASQSISSYLAWYQQKPGQAPRLLIYDASNRATGIPARFSGSGSGTDFTLTISSLEPEDFAVYYCQQRSNWPLTFGQGTNLEIK
notes: also called LAG-2 mAb A
B3: hLAG-3 mAb 1 (1.4), constant region not stated (antibody, V domains shown)
VH: QVQLVQSGAEVKKPGASVKVSCKASGYTFTNYGMNWVRQAPGQGLEWMGWINTYTGESTYADDFEGRFVFSMDTSASTAYLQISSLKAEDTAVYYCARESLYDYYSMDYWGQGTTVTVSS
VL: DIVMTQTPLSLSVTPGQPASISCKSSQSLLHSDAKTYLNWLLQKPGQPPERLIYLVSELDSGVPDRFSGSGSGTDFTLKISRVEAEDVGVYYCWQGTHFPYTFGGGTKVEIK
notes: also called hLAG-3 1 (1.4)

What follows are binders tested against T1, soluble LAG-3 fusion protein: extracelluar domain of cynomolgus monkey LAG-3 fused to murine IgG2a (cynomolgus monkey; murine) (assay: SPR (Biacore); cynomolgus LAG-3-murine IgG2a captured on Fab2 goat-anti mouse Fc, antibody in solution).
T1 construct: extracellular domain; also called cynomolgus LAG-3-murine IgG2a fusion protein
Protocol: In additional studies, the binding kinetics of the humanized antibodies hLAG-3 mAb 1 (1.4) and hLAG-3 mAb 6 (1.1), and a reference antibody LAG-3 mAb A to both human and cynomolgus monkey LAG-3 was investigated using Biacore analysis. In these studies, a soluble LAG-3 fusion protein (the extracelluar domain of human or cynomolgus monkey LAG-3 fused to murine IgG2a) was captured on a Fab2 goat-anti mouse Fc surface and incubated with the anti-LAG-3 antibody and the kinetics of binding was determined via Biacore analysis. The binding curves for LAG-3 mAb A, hLAG-3 mAb 1 (1.4) and hLAG-3 mAb 6 (1.1) binding to cynomolgus monkey LAG-3 are shown in FIGS. 7A-7C respectively, and the calculated ka, kd and KD are presented in Table 8. In a separate study, the binding of a bispecific Fc Region-containing diabody comprising hLAG-3 mAb 6 (1.1) to both human and cynomolgus monkey LAG-3 was investigated using Biacore analysis. In this study, the hLAG-3 mAb 6 (1.1) containing diabody was captured on a Fab2 goat-anti human Fc surface and incubated with soluble LAG-3 fusion protein (the extracelluar domain of human or cynomolgus monkey LAG-3 fused to a His tag) and the kinetics of binding was determined via Biacore analysis.
For B1, the Kd was 3.7 nM. Binder B2 has a Kd of 458 nM. With B3 the Kd was under 0.53 nM.
